The DeepSol protein solubility set

assay: soluble on expression in E. coli; label from the status in PepcDB or PDB records

Sequence | soluble on expression in E. coli
MRVALFITCLADHFYPKAGVAPVRLLRALGVKVDFPKGQTCCGQPAFNAGYWDEARPLAKRTLEVFEEAEYVVLPSGSCTSMVKNHYPELLPGNREALAMAEKTYELSQFLVRVLGVEKLGEGLKGRRVAYHHGCHALRELGVREEPLLLLQNAGAEVLPWEAWEECCGFGGLFSVKLPEVSLAMADRKLATLPKAEVLTSTDAGCLLHLAGRLGKKGENLRVAPLATLLWEAYAG | soluble
MRVHVPAQDAREAVRQAAATTGDADVLSETDRRLLATAHELDGTLVSDDYAMQNVAAELAVTVESISQDGITERRDWRLQCQGCGREFDDTDHDRCPVCGSPLERKNPSLEHHHHHH | not soluble
MRVLVLCTHNSARSQMAEAWLKHFARELGVDLEVHSAGTEKAFVKEEAKRVMAEVGLDLSGHFSKTLLEVPDPWDFGLVLTVCDQAKEACPAYPARTERRHVSFPDPTGKPLEEWRKVRDALGRMARFLVEALKEGRLPSDEELRQAARL | soluble
MRVQPVTNCEKAVILEALKIGKRFDFRSLEEFRDVKLVVGAEVGTAICTIGNTKVMAAVSAEIAEPSSMRPHKGVINIDVDLSPMANYANEHDRLGSKGMELIRLLELIIRDSRCIDVEALCIRAGKEIWKIRVDVRILDEDGSLLDCACLAAITALQHFRRPNVTLEPHHTLIYSEYEKAPVPLNIYHMPICTTIGLLDKGQIVVIDPTDKETACLDGSIVVACNKRREVCALHQSTNLILSTKQIERCVKLAMARAEALTAVVSDVIKQDQIERSAFKRPDGFAITTPSLILTAGTTASRQIRAPVIKTEPESFTQRSLYQPSVILNENPLSVGSVKQEDVDEETLLAEQLTTIQNSVGQVEVTEKQTVAVSSRKREVEEVNDLLDGLDDDDEEEEVQTMTLGSETVLNDVPMEEAPDAEDSLVNAKKKKKK | not soluble
MRVVLAPMEGVLDYRMRDLLTQVGSYDLCVTEFIRVVDQVLPDRVFHRYCPELIDADVYGSCTKAGTPVRVQLLGQYPEYMAENAAKVIELGSSGIDLNFGCPSKTVNKSRGGSILLKDPENLYQIIKAVKEAVPSDTIVSAKIRLGYEDKTLAIENGQAVEAAGANELTIHARTKLEGYKPPAHWHWIAKVKNAINIPVIANGEIWNLEDAIKCREISGCTDLMVGRGALTIPNLGQVIKQESDNMPWLEVRAILSAYTEFETHGDKSKYYCNRIKQWLKYLKSHYKEADVLFDEIRRLKTAEGIRAAL | not soluble
MRWEELSEQPCSLARVLAILGDRWTLLVLRDCFLGVRRFDDFERSLGVTRHVLADRLKRLVEAEILAKVPYQERPLREEYRLTEKGMELYPAILSLVNWGDRHLAGVEGPPLEHVHKHCGQHMHGVLVCSECGEPLHARDVTVREGLFWKGRLLRRG | not soluble
MRWNRMNPFGSYKKVVSARSTLKEVLKKAQDGGIVSTAFIYGLENNLLDGVIVADNAGEFKAVPKVATTPEEVLEAAGTKYTVCPNISVLKSAVREYGCEKIGVVGTPCQVRAVRKLMKYPVGFRHVPDKIALIIGIFCMENFPYYGLKLIVEEHCGVKMEDVVKMDIGKGKFWVYTRWGETKAIKLKETHPYEQIACHVCTDYTAELADISTGSVGSPDGWSTVFIRTAKGEEIFNKMVEDGYLEVKPIEEVKPGLGLVEKLALQKKEKNMKEIEHRKELGLPIPYLEHHHHHH | soluble
MRWVKAGELPMEAAYGATVSLPDRLIFIGGSNSSDRFSSVLSFSFDCMKDSGLICETLPPLPHAVDNMSATLLGDTLYVLGGNRNGIPSSSMFSLCLDNYSAGWTEVPFPGRPRVQPVCSSLLGKLYVFGGFTSGGDASVSTDGLCYHPESGQWQVVKAPLTTKGEPLTLTGGASVSYGDVLLICAGGVNRDIFEDAISARYQMVRESEYLLQPIEWYRFNDQLLAYNVRSGEWIRIGVPSPMLARAGSSLVVFGDILFYIGGELKPGVLEHHHHHH | not soluble
